B1: full-length E2F1, purified, recombinant (natural protein)
chain: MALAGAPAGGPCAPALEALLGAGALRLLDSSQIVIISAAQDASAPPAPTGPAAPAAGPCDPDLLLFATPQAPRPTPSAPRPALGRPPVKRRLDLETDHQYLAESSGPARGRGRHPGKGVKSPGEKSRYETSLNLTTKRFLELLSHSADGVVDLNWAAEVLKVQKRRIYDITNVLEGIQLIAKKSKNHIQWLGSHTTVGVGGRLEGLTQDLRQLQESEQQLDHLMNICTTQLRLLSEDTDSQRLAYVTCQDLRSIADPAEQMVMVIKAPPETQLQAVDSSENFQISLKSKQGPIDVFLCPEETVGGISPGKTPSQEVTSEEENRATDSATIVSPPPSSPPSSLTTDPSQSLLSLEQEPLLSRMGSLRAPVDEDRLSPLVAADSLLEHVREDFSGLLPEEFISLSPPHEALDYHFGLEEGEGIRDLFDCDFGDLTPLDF

Target: T1, human Retinoblastoma-1 (RB) pocket domain (human, UniProt P06400 373-771)
T1 chain: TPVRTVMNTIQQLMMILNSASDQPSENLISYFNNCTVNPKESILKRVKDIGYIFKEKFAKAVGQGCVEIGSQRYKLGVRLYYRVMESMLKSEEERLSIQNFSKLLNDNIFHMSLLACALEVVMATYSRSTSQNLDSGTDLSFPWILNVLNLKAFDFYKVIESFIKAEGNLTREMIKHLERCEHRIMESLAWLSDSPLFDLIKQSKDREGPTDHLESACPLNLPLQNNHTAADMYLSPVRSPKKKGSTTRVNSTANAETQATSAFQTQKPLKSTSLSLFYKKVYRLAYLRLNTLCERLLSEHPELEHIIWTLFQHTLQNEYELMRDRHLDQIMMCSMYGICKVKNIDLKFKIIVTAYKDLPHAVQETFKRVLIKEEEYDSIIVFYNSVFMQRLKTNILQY
Assay: SPR

Row | Binder | Kd [µM]
1 | B1 | 0.0331
2 | YIEEVFTPLVLKCKELK [LXCXE peptide derived from TpGcpE (TpMuguga_02g00667)] | 22.4

— PMC7055300 (2020)
